In this assay the target is T1, UDT1-nYFP (UNDEVELOPED TAPETUM1 fused with the N-terminal split of YFP) (rice (japonica cv. Nipponbare), UniProt B9FXT3 1-234).
T1 sequence (looked up): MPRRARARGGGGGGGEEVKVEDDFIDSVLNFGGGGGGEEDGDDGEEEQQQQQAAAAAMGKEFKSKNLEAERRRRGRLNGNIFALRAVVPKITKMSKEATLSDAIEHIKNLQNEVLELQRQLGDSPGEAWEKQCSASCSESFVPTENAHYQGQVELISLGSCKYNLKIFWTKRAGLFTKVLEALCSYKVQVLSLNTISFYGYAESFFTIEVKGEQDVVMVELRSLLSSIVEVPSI
Nature of the assay: cell-based or functional assay.

B1: EAT1-cYFP (ETERNAL TAPETUM1 fused with the C-terminal split of YFP) (natural protein, rice (japonica cv. Nipponbare), UniProt Q7X8R0 1-464, looked up)
chain: MIVGAGYFEDSHDQSLMAGSLIHDSNQAPASSENTSIDLQKFKVHPYSTEALSNTANLAEAARAINHLQHQLEIDLEQEVPPVETANWDPAICTIPDHIINHQFSEDPQNILVEQQIQQYDSALYPNGVYTPAPDLLNLMQCTMAPAFPATTSVFGDTTLNGTNYLDLNGELTGVAAVPDSGSGLMFASDSALQLGYHGTQSHLIKDICHSLPQNYGLFPSEDERDVIIGVGSGDLFQEIDDRQFDSVLECRRGKGEFGKGKGKANFATERERREQLNVKFRTLRMLFPNPTKNDRASIVGDAIEYIDELNRTVKELKILVEQKRHGNNRRKVLKLDQEAAADGESSSMRPVRDDQDNQLHGAIRSSWVQRRSKECHVDVRIVDDEVNIKLTEKKKANSLLHAAKVLDEFQLELIHVVGGIIGDHHIFMFNTKVSEGSAVYACAVAKKLLQAVDVQHQALDIFN
For B1, the “transient expression assay in rice protoplasts: firefly Luciferase activity of the 24-PHAS chr5-20 promoter on EAT1-UDT1 cotransfection (untagged effectors), fold against the no effector control” value came out at 4.46 fold; the “transient expression assay in rice protoplasts: firefly Luciferase activity of the 24-PHAS chr6-97 promoter on EAT1-UDT1 cotransfection (untagged effectors), fold against the no effector control” value amounted to 3.99 fold; the “transient expression assay in rice protoplasts: firefly Luciferase activity of the EAT1 promoter (pEAT1) on EAT1-UDT1 cotransfection (untagged effectors)” value was 7.61 fold.

B2: TIP2-cYFP (TDR INTERACTING PROTEIN2 fused with the C-terminal split of YFP) (natural protein, rice (japonica cv. Nipponbare), UniProt Q5JNS0 1-379, looked up)
chain: MYHPQCELLMPLESLEMDVGQSHLAAAVAAAMPGELNFHLLHSLDAAAAAASSTAASASSQPTVDYFFGGADQQPPPPAAMQYDQLAAPHHHQTVAMLRDYYGGHYPPAAAAAAATEAYFRGGPRTAGSSSLVFGPADDESAFMVGPFESSPTPRSGGGRKRSRATAGFHGGGPANGVEKKEKQRRLRLTEKYNALMLLIPNRTKEDRATVISDAIEYIQELGRTVEELTLLVEKKRRRREMQGDVVDAATSSVVAGMDQAAESSEGEVMAAAAMGAVAPPPRQAPIRSTYIQRRSKETFVDVRIVEDDVNIKLTKRRRDGCLAAASRALDDLRLDLVHLSGGKIGDCHIYMFNTKIHSGSPVFASAVASRLIEVVDEY
Turning to B2, the “transient expression assay in rice protoplasts: firefly Luciferase activity of the 24-PHAS chr5-20 promoter on TIP2-UDT1 cotransfection (untagged effectors)” value came out at 8.63 fold, the “transient expression assay in rice protoplasts: firefly Luciferase activity of the 24-PHAS chr6-97 promoter on TIP2-UDT1 cotransfection (untagged effectors)” value was determined as 2.73 fold, the “transient expression assay in rice protoplasts: firefly Luciferase activity of the DCL5 promoter (pDCL5) on TIP2-UDT1 cotransfection (untagged effectors)” value came out at 4.91 fold and the “transient expression assay in rice protoplasts: firefly Luciferase activity of the EAT1 promoter (pEAT1) on TIP2-UDT1 cotransfection (untagged effectors)” value was found to be 5.72 fold.

The values are drawn from paper PMC5825165, “EAT1 transcription factor, a non-cell-autonomous regulator of pollen production, activates meiotic small RNA biogenesis in rice anther tapetum” (PLoS Genetics, 2018).
